Laboratory results as given in patent US20230141177A1.

Assays:
[1] = biological target: Aβ aggregates in the high molecular weight (HMW) fraction of pooled soluble human AD brain extract (>70 kDa to ~700 kDa) (human) (UniProt P05067); test: sandwich SPR: HMW material captured by immobilized Parental, detected by aducanumab
[2] = biological target: Aβ aggregates in the high molecular weight (HMW) fraction of pooled soluble human AD brain extract (>70 kDa to ~700 kDa) (human) (UniProt P05067); test: sandwich SPR: HMW material captured by immobilized Clone 5, detected by aducanumab
[3] = biological target: Aβ aggregates in the high molecular weight (HMW) fraction of pooled soluble human AD brain extract (>70 kDa to ~700 kDa) (human) (UniProt P05067); test: sandwich SPR: HMW material captured by immobilized Clone 4, detected by aducanumab
[4] = biological target: AβO in the low molecular weight (LMW) fraction of pooled soluble human AD brain extract (~8 kDa to ~70 kDa) (human) (UniProt P05067); test: sandwich SPR: LMW material captured by immobilized Parental, detected by aducanumab
[5] = biological target: Aβ aggregates in the high molecular weight (HMW) fraction of pooled soluble human AD brain extract (>70 kDa to ~700 kDa) (human) (UniProt P05067); test: sandwich SPR: HMW material captured by immobilized Clone 14, detected by aducanumab
[6] = biological target: AβO in the low molecular weight (LMW) fraction of pooled soluble human AD brain extract (~8 kDa to ~70 kDa) (human) (UniProt P05067); test: sandwich SPR: LMW material captured by immobilized Clone 14, detected by aducanumab
[7] = biological target: AβO in the low molecular weight (LMW) fraction of pooled soluble human AD brain extract (~8 kDa to ~70 kDa) (human) (UniProt P05067); test: sandwich SPR: LMW material captured by immobilized Clone 4, detected by aducanumab

Substance: Aducanumab (antibody)
- Bound Ab detection by aducanumab, HMW (BRU) [1]: 8.3 BRU
- Bound Ab detection by aducanumab, HMW (BRU) [2]: 1.25 BRU
- Bound Ab detection by aducanumab, HMW (BRU) [3]: 10.4 BRU
- Bound Ab detection by aducanumab, LMW (BRU) [4]: 5.8 BRU
- Bound Ab detection by aducanumab, HMW (BRU) [5]: 5.7 BRU
- Bound Ab detection by aducanumab, LMW (BRU) [6]: 4.4 BRU
- Bound Ab detection by aducanumab, LMW (BRU) [7]: 7.7 BRU
